From patent publication US20150258192A1, “COMPOSITIONS AND METHODS FOR PREVENTING OR TREATING CHRONIC LUNG ALLOGRAFT DYSFUNCTION (CLAD) AND IDIOPATHIC PULMONARY FIBROSIS (IPF)” (priority 2014, published 2015)
No end group written: not given here.

Assays:
Test in all cases: Kinase Profiling Assay
Type in all cases: biochemical
Settings in all cases: peptide 100 μM
Aurora-B(h) = Aurora-B(h) (Homo sapiens, UniProt Q96GD4)
In short: (§1)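 Each kinase activity was measured in duplicate. Phosphorylation of a positively charged substrate with radiolabeled phosphate from ATP was captured on a negatively charged filter, counted by scintillation and expressed relative to a 100% activity control. MK2 inhibitory peptides were screened for specificity across 266 human kinases.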

SRPK1(h) = molecular target: T1, SRPK1(h) (Homo sapiens, UniProt Q96SB4)
T1 construct: purchased Millipore
T1 sequence (Q96SB4 whole entry): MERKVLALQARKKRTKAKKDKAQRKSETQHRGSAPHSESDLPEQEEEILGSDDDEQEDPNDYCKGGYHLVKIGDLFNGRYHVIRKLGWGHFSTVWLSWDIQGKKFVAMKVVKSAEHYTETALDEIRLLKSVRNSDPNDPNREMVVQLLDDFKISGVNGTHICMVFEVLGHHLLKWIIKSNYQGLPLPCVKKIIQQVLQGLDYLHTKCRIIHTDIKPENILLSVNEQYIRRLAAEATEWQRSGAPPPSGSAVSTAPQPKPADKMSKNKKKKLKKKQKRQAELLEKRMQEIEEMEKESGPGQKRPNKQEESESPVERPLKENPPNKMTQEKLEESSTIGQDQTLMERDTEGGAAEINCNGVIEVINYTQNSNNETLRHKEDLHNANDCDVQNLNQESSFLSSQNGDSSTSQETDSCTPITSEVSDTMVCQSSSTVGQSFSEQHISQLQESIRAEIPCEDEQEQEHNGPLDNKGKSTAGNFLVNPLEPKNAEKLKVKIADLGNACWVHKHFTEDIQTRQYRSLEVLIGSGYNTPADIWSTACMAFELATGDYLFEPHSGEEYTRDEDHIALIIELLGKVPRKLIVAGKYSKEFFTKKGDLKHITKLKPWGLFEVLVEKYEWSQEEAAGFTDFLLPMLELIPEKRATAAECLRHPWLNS
In short: as §1

TrkB(h) = TrkB(h) (Homo sapiens, UniProt Q16620)
In short: as §1

PKD2(h) = molecular target: T2, PKD2(h) (Homo sapiens, UniProt Q9BZL6)
T2 sequence (Q9BZL6 1-878): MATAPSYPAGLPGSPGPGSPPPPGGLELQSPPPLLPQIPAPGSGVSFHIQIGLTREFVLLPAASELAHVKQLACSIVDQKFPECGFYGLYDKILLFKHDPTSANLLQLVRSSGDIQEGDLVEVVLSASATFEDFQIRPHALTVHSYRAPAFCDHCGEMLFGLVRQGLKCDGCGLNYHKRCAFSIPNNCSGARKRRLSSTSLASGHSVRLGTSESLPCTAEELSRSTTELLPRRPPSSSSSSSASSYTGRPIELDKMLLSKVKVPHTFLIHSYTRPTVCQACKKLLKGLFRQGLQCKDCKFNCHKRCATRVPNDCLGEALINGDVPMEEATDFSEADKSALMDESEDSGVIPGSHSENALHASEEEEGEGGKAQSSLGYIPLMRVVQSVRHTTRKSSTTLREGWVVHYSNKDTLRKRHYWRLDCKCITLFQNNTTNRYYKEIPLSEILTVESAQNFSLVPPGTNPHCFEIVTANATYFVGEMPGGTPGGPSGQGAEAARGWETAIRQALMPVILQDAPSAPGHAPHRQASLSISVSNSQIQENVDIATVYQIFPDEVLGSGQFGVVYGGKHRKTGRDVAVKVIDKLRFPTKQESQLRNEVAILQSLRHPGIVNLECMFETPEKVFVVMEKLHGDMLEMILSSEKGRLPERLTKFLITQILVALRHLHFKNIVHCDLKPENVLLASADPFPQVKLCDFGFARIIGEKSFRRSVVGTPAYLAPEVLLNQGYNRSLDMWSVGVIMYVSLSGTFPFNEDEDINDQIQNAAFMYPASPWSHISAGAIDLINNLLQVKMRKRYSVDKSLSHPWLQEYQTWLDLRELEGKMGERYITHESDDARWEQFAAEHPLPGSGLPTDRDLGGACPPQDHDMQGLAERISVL
In short: as §1

Haspin(h) = molecular target: T3, Haspin(h) (Homo sapiens, UniProt Q8TF76)
T3 construct: purchased Millipore
T3 sequence (Q8TF76 1-798): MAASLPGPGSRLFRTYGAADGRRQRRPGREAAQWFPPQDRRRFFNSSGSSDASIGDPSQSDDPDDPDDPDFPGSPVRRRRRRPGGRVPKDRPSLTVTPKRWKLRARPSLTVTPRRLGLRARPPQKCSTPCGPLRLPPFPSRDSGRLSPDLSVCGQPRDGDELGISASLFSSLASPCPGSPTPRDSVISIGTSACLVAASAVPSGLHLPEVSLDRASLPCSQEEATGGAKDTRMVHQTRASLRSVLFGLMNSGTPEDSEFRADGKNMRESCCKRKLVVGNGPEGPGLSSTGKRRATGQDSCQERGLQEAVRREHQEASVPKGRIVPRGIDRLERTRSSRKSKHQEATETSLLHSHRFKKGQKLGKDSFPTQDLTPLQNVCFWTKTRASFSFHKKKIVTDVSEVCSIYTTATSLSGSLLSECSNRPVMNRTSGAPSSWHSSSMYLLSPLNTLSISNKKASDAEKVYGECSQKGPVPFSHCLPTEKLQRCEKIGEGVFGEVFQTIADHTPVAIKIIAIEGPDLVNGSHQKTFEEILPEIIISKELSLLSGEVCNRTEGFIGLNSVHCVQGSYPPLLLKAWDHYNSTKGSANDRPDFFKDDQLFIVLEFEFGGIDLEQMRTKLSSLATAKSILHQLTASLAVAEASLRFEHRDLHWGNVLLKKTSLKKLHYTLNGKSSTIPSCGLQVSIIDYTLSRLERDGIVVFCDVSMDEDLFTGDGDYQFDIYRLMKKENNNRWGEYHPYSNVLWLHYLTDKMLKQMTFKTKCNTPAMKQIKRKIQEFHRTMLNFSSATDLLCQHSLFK
In short: as §1

CDK7/cyclinH/MAT1(h) = CDK7/cyclinH/MAT1(h) (Homo sapiens, UniProt P50613)
CDK7/cyclinH/MAT1(h), sequence (P50613 whole entry): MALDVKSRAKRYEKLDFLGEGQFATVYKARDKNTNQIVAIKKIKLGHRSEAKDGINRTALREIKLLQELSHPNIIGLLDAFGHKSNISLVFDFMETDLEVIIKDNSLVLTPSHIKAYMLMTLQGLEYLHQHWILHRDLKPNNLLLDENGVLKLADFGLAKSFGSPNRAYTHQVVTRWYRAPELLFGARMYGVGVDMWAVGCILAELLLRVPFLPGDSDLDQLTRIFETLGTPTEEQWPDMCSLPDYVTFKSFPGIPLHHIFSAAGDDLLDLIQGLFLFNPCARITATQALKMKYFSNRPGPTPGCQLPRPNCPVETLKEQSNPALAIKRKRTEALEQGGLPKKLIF
CDK7/cyclinH/MAT1(h), sequence (P51946 whole entry partner): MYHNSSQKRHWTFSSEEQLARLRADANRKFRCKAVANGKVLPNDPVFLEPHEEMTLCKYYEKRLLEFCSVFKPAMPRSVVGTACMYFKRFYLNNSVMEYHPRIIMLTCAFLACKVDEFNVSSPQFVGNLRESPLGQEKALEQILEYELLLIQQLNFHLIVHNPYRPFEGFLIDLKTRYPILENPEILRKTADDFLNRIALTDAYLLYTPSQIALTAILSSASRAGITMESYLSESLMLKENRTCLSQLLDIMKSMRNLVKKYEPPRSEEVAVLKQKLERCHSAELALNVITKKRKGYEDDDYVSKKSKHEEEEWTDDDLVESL
CDK7/cyclinH/MAT1(h), sequence (P51948 whole entry partner): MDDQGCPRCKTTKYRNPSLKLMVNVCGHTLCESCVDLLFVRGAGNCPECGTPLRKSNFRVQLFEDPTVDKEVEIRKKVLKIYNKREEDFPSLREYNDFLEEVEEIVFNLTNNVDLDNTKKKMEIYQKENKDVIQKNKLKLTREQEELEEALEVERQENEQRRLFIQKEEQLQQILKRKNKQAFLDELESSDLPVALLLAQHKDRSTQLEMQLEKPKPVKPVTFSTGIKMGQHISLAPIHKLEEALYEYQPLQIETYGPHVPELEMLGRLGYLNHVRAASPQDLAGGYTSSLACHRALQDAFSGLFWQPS
In short: as §1

Tie2(h) = molecular target: T4, Tie2(h) (Homo sapiens, UniProt Q02763)
T4 construct: purchased Millipore
In short: as §1

PKBα(h) = PKBα(h) (Homo sapiens, UniProt P31749)
PKBα(h), sequence (P31749 whole entry): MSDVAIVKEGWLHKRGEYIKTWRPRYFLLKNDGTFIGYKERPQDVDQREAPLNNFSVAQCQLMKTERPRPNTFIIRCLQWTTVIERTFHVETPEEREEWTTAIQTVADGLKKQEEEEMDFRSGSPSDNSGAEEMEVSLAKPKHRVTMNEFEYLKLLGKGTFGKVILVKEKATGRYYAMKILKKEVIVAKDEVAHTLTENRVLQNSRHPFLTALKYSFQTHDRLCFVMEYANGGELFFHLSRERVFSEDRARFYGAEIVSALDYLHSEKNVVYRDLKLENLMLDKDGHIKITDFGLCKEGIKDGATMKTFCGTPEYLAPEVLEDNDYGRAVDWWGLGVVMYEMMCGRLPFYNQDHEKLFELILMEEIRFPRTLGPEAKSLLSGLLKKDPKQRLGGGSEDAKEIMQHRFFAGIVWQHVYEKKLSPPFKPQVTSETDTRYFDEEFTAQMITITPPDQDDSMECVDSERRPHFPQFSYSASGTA
In short: as §1

WNK2(h) = WNK2(h) (Homo sapiens, UniProt Q9Y3S1)
WNK2(h), sequence (Q9Y3S1 whole entry): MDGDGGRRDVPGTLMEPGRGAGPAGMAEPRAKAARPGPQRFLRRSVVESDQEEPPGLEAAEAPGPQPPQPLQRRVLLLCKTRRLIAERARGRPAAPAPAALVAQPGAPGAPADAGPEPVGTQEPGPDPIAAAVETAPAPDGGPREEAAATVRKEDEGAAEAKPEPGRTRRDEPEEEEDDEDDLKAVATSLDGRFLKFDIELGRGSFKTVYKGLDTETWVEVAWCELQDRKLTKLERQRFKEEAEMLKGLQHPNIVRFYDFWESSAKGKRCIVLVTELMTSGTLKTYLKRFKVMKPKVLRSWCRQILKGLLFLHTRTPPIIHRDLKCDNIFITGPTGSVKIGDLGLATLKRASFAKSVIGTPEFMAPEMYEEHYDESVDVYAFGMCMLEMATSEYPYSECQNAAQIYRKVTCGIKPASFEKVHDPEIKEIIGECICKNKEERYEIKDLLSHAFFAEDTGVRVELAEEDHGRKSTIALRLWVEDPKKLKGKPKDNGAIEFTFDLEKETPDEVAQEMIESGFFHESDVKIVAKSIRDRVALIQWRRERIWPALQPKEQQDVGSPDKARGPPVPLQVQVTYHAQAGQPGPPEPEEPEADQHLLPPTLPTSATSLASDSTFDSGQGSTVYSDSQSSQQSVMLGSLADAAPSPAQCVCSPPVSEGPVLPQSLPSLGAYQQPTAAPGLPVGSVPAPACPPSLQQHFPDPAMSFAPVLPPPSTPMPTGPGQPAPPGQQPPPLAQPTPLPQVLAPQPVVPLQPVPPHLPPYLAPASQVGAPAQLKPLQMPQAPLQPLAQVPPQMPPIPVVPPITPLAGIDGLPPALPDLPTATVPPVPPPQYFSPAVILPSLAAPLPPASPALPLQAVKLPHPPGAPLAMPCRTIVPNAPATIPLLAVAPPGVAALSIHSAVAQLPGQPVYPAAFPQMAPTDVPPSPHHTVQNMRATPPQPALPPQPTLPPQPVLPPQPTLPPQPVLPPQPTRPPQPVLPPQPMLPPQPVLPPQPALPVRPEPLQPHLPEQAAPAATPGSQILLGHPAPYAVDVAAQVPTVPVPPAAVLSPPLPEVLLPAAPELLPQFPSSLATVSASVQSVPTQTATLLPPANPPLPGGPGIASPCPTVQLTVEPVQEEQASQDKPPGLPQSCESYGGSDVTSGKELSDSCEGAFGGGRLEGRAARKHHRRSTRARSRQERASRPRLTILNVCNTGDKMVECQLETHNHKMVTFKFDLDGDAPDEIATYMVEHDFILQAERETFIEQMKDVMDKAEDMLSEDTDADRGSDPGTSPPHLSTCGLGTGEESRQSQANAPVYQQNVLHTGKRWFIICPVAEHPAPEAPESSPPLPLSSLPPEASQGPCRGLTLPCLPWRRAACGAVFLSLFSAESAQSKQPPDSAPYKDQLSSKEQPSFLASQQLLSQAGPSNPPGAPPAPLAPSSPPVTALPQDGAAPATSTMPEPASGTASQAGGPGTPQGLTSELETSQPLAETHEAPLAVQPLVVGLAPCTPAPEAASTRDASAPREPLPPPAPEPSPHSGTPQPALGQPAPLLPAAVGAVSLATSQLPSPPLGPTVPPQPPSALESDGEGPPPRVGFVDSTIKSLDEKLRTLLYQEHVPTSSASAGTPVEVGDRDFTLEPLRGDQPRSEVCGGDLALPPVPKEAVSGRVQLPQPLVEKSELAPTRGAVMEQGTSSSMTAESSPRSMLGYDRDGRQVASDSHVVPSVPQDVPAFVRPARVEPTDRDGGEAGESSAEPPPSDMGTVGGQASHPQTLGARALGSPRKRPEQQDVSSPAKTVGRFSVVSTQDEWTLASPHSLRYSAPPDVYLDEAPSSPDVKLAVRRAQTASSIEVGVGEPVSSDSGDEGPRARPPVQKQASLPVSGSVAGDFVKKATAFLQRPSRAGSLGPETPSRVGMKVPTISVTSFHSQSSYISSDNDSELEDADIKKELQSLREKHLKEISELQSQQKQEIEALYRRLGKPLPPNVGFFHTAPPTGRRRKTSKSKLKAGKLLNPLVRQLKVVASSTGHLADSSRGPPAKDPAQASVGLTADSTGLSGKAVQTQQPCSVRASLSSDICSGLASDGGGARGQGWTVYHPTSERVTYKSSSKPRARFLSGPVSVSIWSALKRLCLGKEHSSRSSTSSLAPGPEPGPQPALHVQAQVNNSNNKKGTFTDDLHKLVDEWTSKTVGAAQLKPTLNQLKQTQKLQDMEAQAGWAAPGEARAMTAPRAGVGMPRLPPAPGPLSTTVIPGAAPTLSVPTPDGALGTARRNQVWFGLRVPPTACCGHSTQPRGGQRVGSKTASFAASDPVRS
In short: as §1

PKBβ(h) = PKBβ(h) (Homo sapiens, UniProt P31751)
In short: as §1

SIK(h) = molecular target: T5, SIK(h) (Homo sapiens, UniProt P57059)
T5 construct: purchased Millipore
In short: as §1

VRK2(h) = VRK2(h) (Homo sapiens, UniProt Q86Y07)
VRK2(h), sequence (Q86Y07 whole entry): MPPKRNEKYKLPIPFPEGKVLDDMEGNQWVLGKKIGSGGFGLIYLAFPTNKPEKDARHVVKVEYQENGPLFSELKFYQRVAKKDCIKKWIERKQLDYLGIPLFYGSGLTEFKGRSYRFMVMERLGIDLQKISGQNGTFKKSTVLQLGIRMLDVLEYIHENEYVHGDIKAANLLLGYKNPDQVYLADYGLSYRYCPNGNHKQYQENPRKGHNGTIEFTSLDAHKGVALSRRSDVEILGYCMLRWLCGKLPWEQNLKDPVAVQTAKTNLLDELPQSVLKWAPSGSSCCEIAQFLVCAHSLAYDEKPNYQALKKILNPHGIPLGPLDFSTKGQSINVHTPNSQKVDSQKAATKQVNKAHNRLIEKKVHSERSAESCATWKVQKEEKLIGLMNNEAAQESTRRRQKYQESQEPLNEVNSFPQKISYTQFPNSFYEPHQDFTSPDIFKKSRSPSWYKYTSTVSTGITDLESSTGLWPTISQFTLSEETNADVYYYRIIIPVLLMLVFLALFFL
In short: as §1

Row | Sequence | % activity (Aurora-B(h)) [%] | % activity (SRPK1(h)) [%] | % activity (TrkB(h)) [%] | % activity (PKD2(h)) [%] | % activity (Haspin(h)) [%] | % activity (CDK7/cyclinH/MAT1(h)) [%] | % activity (Tie2(h)) [%] | % activity (PKBα(h)) [%] | % activity (WNK2(h)) [%] | % activity (PKBβ(h)) [%] | % activity (SIK(h)) [%] | % activity (VRK2(h)) [%]
1 | YARAAARQARAKALNRQLGVA (Mammal) [MMI-0200] | 166 | 93 | 7 | 78 | 71 | 67 | 53 | 110 | 94 | 250 |  | 
2 | YARAAARQARAKALARQLGVAA [MMI-0100] |  | 69 | 4 | 84 | 127 |  | 28 |  | 95 |  |  | 
3 | HRRIKAWLKKIKALARQLGVAA (Mammal) [MMI-0500] | 5 | 80 | 12 | 10 | 25 | 15 | 22 | 30 | 8 | 21 | 40 | 169
4 | KAFAKLAARLYRKALARQLGVAA [MMI-0400] | 150 | 96 | 8 | 25 | 36 | 47 | 21 | 67 | 54 | 98 | 68 | 185
5 | FAKLAARLYRKALARQLGVAA [MMI-0300] | 128 | 90 | 5 | 33 | 48 | 65 | 26 | 57 | 64 | 84 | 66 | 161
